In the supplement of paper PMC9112550, “Optimization of the antimicrobial peptide Bac7 by deep mutational scanning” (BMC Biology, 2022):

Each sequence was assayed on Escherichia coli TOP10 (assay: shrunken log2 fold change of peptide-encoding DNA abundance (4.5 h post-induction vs induction); higher = less antimicrobial activity (less host growth inhibition)). Conditions: time post-induction: 4.5 h; library: site-saturation at positions 5, 18, 19, 20.
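Further: peptides expressed intracellularly from a pBAD plasmid library in pooled LB shake-flask culture, induced with 0.3% L-arabinose, DNA abundance read by NGS, three biological replicates, DESeq2 with apeglm shrinkage.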

For RRIRMRPPRLPRPRPRPYKNPRP, which “shrunken log2 fold change” value is on record?
Its value is -0.259.

With RRIRSRPPRLPRPRPRPVKYPRP as the sequence, how does the “shrunken log2 fold change” value read?
Its value is -0.177.

Which “shrunken log2 fold change” value does the source give for RRIRLRPPRLPRPRPRPWVRPRP here?
Its value is -0.00819.

With RRIRDRPPRLPRPRPRPESWPRP as the sequence, how does the “shrunken log2 fold change” value read?
Its value is 1.58.

For RRIRNRPPRLPRPRPRPNVSPRP, which “shrunken log2 fold change” value is on record?
The value was 0.0376.

Which “shrunken log2 fold change” value does the source give for RRIRFRPPRLPRPRPRPGIVPRP here?
Its value is -0.0228.

For RRIRWRPPRLPRPRPRPWDDPRP, which “shrunken log2 fold change” value is on record?
The value was -0.236.

How did the “shrunken log2 fold change” value turn out when RRIRCRPPRLPRPRPRPQFSPRP was run?
The value was -0.145.

RRIRIRPPRLPRPRPRPNQWPRP was tested. Which “shrunken log2 fold change” value did it give?
Its value is -0.422.

Which “shrunken log2 fold change” value does the source give for RRIRFRPPRLPRPRPRPMSEPRP here?
The value was -0.381.

Which “shrunken log2 fold change” value does the source give for RRIRPRPPRLPRPRPRPLTVPRP here?
Its value is -0.126.

Which “shrunken log2 fold change” value does the source give for RRIRTRPPRLPRPRPRPQVWPRP here?
Its value is 0.112.

With RRIRDRPPRLPRPRPRPDKVPRP as the sequence, how does the “shrunken log2 fold change” value read?
Its value is -0.159.

How did the “shrunken log2 fold change” value turn out when RRIRDRPPRLPRPRPRPPFRPRP was run?
Its value is 0.126.

With RRIRHRPPRLPRPRPRPMDAPRP as the sequence, how does the “shrunken log2 fold change” value read?
The value was 0.00875.

How did the “shrunken log2 fold change” value turn out when RRIRRRPPRLPRPRPRPRHLPRP was run?
Its value is 0.197.

How did the “shrunken log2 fold change” value turn out when RRIRRRPPRLPRPRPRPSFDPRP was run?
The value was 0.135.

With RRIRSRPPRLPRPRPRPWNHPRP as the sequence, how does the “shrunken log2 fold change” value read?
The value was -0.0307.

Which “shrunken log2 fold change” value does the source give for RRIRARPPRLPRPRPRPEYGPRP here?
The value was 0.11.

With RRIRERPPRLPRPRPRPGDFPRP as the sequence, how does the “shrunken log2 fold change” value read?
The value was -0.107.

Which “shrunken log2 fold change” value does the source give for RRIRWRPPRLPRPRPRPGQYPRP here?
The value was 0.0716.

With RRIRPRPPRLPRPRPRPVAGPRP as the sequence, how does the “shrunken log2 fold change” value read?
Its value is 0.308.

For RRIRHRPPRLPRPRPRPASHPRP, which “shrunken log2 fold change” value is on record?
Its value is 0.0269.

Which “shrunken log2 fold change” value does the source give for RRIRIRPPRLPRPRPRPVHAPRP here?
The value was 0.0769.

How did the “shrunken log2 fold change” value turn out when RRIRHRPPRLPRPRPRPEIAPRP was run?
Its value is -0.0585.

For RRIRARPPRLPRPRPRPILFPRP, which “shrunken log2 fold change” value is on record?
The value was -0.166.

For RRIRIRPPRLPRPRPRPSQIPRP, which “shrunken log2 fold change” value is on record?
Its value is -0.142.

RRIRPRPPRLPRPRPRPSVIPRP was tested. Which “shrunken log2 fold change” value did it give?
The value was -0.00563.

With RRIRERPPRLPRPRPRPEQGPRP as the sequence, how does the “shrunken log2 fold change” value read?
The value was 0.0117.

For RRIRDRPPRLPRPRPRPKPGPRP, which “shrunken log2 fold change” value is on record?
The value was 0.654.

Which “shrunken log2 fold change” value does the source give for RRIRYRPPRLPRPRPRPRYNPRP here?
The value was -0.339.

How did the “shrunken log2 fold change” value turn out when RRIRQRPPRLPRPRPRPTTDPRP was run?
The value was -0.0492.

With RRIRTRPPRLPRPRPRPVYYPRP as the sequence, how does the “shrunken log2 fold change” value read?
The value was -1.24.

With RRIRKRPPRLPRPRPRPHAKPRP as the sequence, how does the “shrunken log2 fold change” value read?
The value was 0.226.

With RRIRGRPPRLPRPRPRPWKSPRP as the sequence, how does the “shrunken log2 fold change” value read?
The value was -0.207.

RRIRCRPPRLPRPRPRPRTYPRP was tested. Which “shrunken log2 fold change” value did it give?
The value was -0.447.

RRIRARPPRLPRPRPRPSNMPRP was tested. Which “shrunken log2 fold change” value did it give?
Its value is -0.28.

With RRIRKRPPRLPRPRPRPDMMPRP as the sequence, how does the “shrunken log2 fold change” value read?
Its value is 1.43.

Which “shrunken log2 fold change” value does the source give for RRIRMRPPRLPRPRPRPHHPPRP here?
The value was -0.234.

For RRIRDRPPRLPRPRPRPMVQPRP, which “shrunken log2 fold change” value is on record?
Its value is -0.00146.

RRIRERPPRLPRPRPRPWQGPRP was tested. Which “shrunken log2 fold change” value did it give?
The value was 0.0776.

How did the “shrunken log2 fold change” value turn out when RRIRHRPPRLPRPRPRPLRYPRP was run?
The value was -0.388.

How did the “shrunken log2 fold change” value turn out when RRIRDRPPRLPRPRPRPKVKPRP was run?
Its value is -0.337.

How did the “shrunken log2 fold change” value turn out when RRIRARPPRLPRPRPRPTQIPRP was run?
The value was 0.553.

Which “shrunken log2 fold change” value does the source give for RRIRSRPPRLPRPRPRPAEPPRP here?
The value was -0.16.

With RRIRPRPPRLPRPRPRPDWGPRP as the sequence, how does the “shrunken log2 fold change” value read?
The value was 0.107.

Which “shrunken log2 fold change” value does the source give for RRIRHRPPRLPRPRPRPHDMPRP here?
The value was -0.291.

RRIRDRPPRLPRPRPRPDHMPRP was tested. Which “shrunken log2 fold change” value did it give?
Its value is -0.0107.

With RRIRLRPPRLPRPRPRPMSGPRP as the sequence, how does the “shrunken log2 fold change” value read?
The value was -0.0068.

How did the “shrunken log2 fold change” value turn out when RRIRARPPRLPRPRPRPRTPPRP was run?
The value was 0.636.

RRIRSRPPRLPRPRPRPCQFPRP was tested. Which “shrunken log2 fold change” value did it give?
The value was -0.0444.

For RRIRPRPPRLPRPRPRPTTWPRP, which “shrunken log2 fold change” value is on record?
Its value is 0.176.

Which “shrunken log2 fold change” value does the source give for RRIRYRPPRLPRPRPRPDEMPRP here?
Its value is 0.0412.

RRIRPRPPRLPRPRPRPDSNPRP was tested. Which “shrunken log2 fold change” value did it give?
The value was -0.221.

How did the “shrunken log2 fold change” value turn out when RRIRERPPRLPRPRPRPPCVPRP was run?
Its value is -0.159.

RRIRARPPRLPRPRPRPNSTPRP was tested. Which “shrunken log2 fold change” value did it give?
Its value is 0.0264.

For RRIRTRPPRLPRPRPRPADSPRP, which “shrunken log2 fold change” value is on record?
The value was 0.0603.

For RRIRLRPPRLPRPRPRPKFEPRP, which “shrunken log2 fold change” value is on record?
Its value is 0.0662.

How did the “shrunken log2 fold change” value turn out when RRIRVRPPRLPRPRPRPDWCPRP was run?
Its value is 0.0302.

RRIRARPPRLPRPRPRPFPVPRP was tested. Which “shrunken log2 fold change” value did it give?
The value was -0.0583.

RRIRIRPPRLPRPRPRPYERPRP was tested. Which “shrunken log2 fold change” value did it give?
The value was -0.023.

For RRIRIRPPRLPRPRPRPIWTPRP, which “shrunken log2 fold change” value is on record?
The value was -0.0318.

How did the “shrunken log2 fold change” value turn out when RRIRYRPPRLPRPRPRPGCCPRP was run?
Its value is -0.309.

How did the “shrunken log2 fold change” value turn out when RRIRRRPPRLPRPRPRPMPVPRP was run?
Its value is 0.388.

Which “shrunken log2 fold change” value does the source give for RRIRHRPPRLPRPRPRPCPRPRP here?
Its value is -0.28.

With RRIRTRPPRLPRPRPRPCGIPRP as the sequence, how does the “shrunken log2 fold change” value read?
Its value is 0.0859.

RRIRGRPPRLPRPRPRPNLFPRP was tested. Which “shrunken log2 fold change” value did it give?
Its value is 0.129.

Which “shrunken log2 fold change” value does the source give for RRIRQRPPRLPRPRPRPMRLPRP here?
The value was 0.0296.

With RRIRERPPRLPRPRPRPKTAPRP as the sequence, how does the “shrunken log2 fold change” value read?
The value was -0.0233.

For RRIRMRPPRLPRPRPRPANYPRP, which “shrunken log2 fold change” value is on record?
Its value is -0.394.

RRIRKRPPRLPRPRPRPVCEPRP was tested. Which “shrunken log2 fold change” value did it give?
The value was 0.552.

Which “shrunken log2 fold change” value does the source give for RRIRVRPPRLPRPRPRPKILPRP here?
Its value is -0.0923.

Which “shrunken log2 fold change” value does the source give for RRIRERPPRLPRPRPRPGKVPRP here?
The value was 0.206.

With RRIRARPPRLPRPRPRPCCKPRP as the sequence, how does the “shrunken log2 fold change” value read?
Its value is -0.12.

Which “shrunken log2 fold change” value does the source give for RRIRGRPPRLPRPRPRPHDSPRP here?
Its value is -0.0179.
